The results in this text go back to patent publication US20110318347A1.

For assay [1], the target named is human CXCR4 (human). In words: competition vs [125I]-238D2 (3 nM), membranes of HEK293T cells expressing CXCR4; Table B-3 competition vs [125I]-238D2, up to 0.5 µM; bound only.
Assay [2] has as its target human CXCR4 (human). In words: periplasmic fraction (1:10), displacement of [125I]-CXCL12, HEK293T-CXCR4 membranes; - = 0-29%, + = 30-69%, ++ = 70-100%; screening of clones (Table B-2): 30-69% displacement of [125I]-CXCL12, HEK293T-CXCR4 membranes. A general note: In a radioligand displacement assay an active substance lowers the binding of a labelled ligand.
Assay [3] concerns the target human CXCR4 (human). In words: competition vs [125I]-238D4 (3 nM), membranes of HEK293T cells expressing CXCR4; Table B-3 competition vs [125I]-238D4, up to 0.5 µM; bound only.
Assay [4] concerns the target human CXCR4 (human). In words: competition vs [125I]-238D2 (3 nM), membranes of HEK293T cells expressing CXCR4; Table B-3 competition vs [125I]-238D2, at 0.5 µM: no displacement.
For assay [5], the target named is human CXCR4 (human). In words: competition vs [125I]-CXCL12 (40 pM), membranes of HEK293T cells expressing CXCR4; Table B-3 competition vs [125I]-CXCL12, up to 0.5 µM; bound only.
Assay [6] has as its target human CXCR4 (human). In words: competition vs [125I]-238D4 (3 nM), membranes of HEK293T cells expressing CXCR4; Table B-3 competition vs [125I]-238D4, at 0.5 µM: no displacement.
Assay [7] has as its target human CXCR4 (human). In words: competition vs [125I]-CXCL12, membranes of HEK293T cells expressing CXCR4.
The target in assay [8] is human CXCR4 (human). In words: competition vs [125I]-CXCL12; potency relative to monovalent 238D2.
Assay [9] concerns the target human CXCR4 (human). In words: competition vs [125I]-CXCL12; potency relative to monovalent 238D4.
Assay [10] concerns the target human CXCR4 (human). In words: competition with [125I]-CXCL12 on HEK293T-CXCR4 membranes.
Assay [11] addresses human CXCR4 (human). In words: competition vs [125I]-CXCL12, membranes of HEK293T cells expressing CXCR4; displacement at 0.5 µM, maximum not reached.

By pKi is commonly meant −log10 of the Ki, conventionally taken in molar units. A higher pKi goes with a low Ki.

B1: Nanobody 237G7 (VHH, from a related filing, part only)
VHH: EVQLVESGGGLVQPGGSLRLSCAASSFIGNYHAIVWLRQAPGKELEGVSCITSRDSITYYASFVKGRFTISRDDAKNTVYLQMNNLKPEDTAVYYCAVBTSMTCPTLIVRFNYRGQGTQVTVSS
For B1, the pKi in the assay with human CXCR4 (human) [1], with human CXCR4 (human) [3] and in the assay with human CXCR4 (human) [5] was less than 6.3 throughout. In addition, in the assay with human CXCR4 (human) [2], the percent inhibition of specific [125I]-CXCL12 binding fell in the range of 30 to 69%. The Displacem. (%) with human CXCR4 (human) [4] and with human CXCR4 (human) [6] was 0% throughout.

B2: 238D2-20GS-238C5 (VHH)
chain: EVQLVESGGGLVQTGGSLRLSCAASGFTFSSYAMSWVRQAPGKGLEWVSGIKSSGDSTRYAGSVKGRFTISRDNAKNMLYLQMYSLKPEDTAVYYCAKSRVSRTGLYTYDNRGQGTQVTVSSGGGGSGGGGSGGGGSGGGGSEVQLMESGGGLVQAGGSLRLACAASGFTFEDYAIGWFRKAPGKEREGVSCISGSDGSTTYADSVKGRFTISTDNAKNTVYLEMNSLKPEDTAVYYCAQQYGVGGRVVCPGPYEYDVWGQGTQVTVSS
In the assay with human CXCR4 (human) [7], B2 displayed a Displacem. (%) of 110% and a pKi of 7.35. For the same molecule, the Rel. potency in the assay with human CXCR4 (human) [8] was found to be 0.18 fold.

B3: 238D4-20GS-238D4 (VHH)
chain: EVQLMESGGGLVQAGGSLRLSCAASGRTFNNYAMGWFRRAPGKEREFVAAITRSGVRSGVSAIYGDSVKDRFTISRDNAKNTLYLQMNSLKPEDTAVYTCAASAIGSGALRRFEYDYSGQGTQVTVSSGGGGSGGGGSGGGGSGGGGSEVQLMESGGGLVQAGGSLRLSCAASGRTFNNYAMGWFRRAPGKEREFVAAITRSGVRSGVSAIYGDSVKDRFTISRDNAKNTLYLQMNSLKPEDTAVYTCAASAIGSGALRRFEYDYSGQGTQVTVSS
Regarding B3, in the assay with human CXCR4 (human) [7], the Displacem. (%) is 96% and the pKi was 8.85. In the assay with human CXCR4 (human) [9], this molecule came in with a Rel. potency of 4.4 fold. The IC50 (read off the curve) with human CXCR4 (human) [10] stood at 2 nM.

B4: 238D2-20GS-238B10 (VHH)
chain: EVQLVESGGGLVQTGGSLRLSCAASGFTFSSYAMSWVRQAPGKGLEWVSGIKSSGDSTRYAGSVKGRFTISRDNAKNMLYLQMYSLKPEDTAVYYCAKSRVSRTGLYTYDNRGQGTQVTVSSGGGGSGGGGSGGGGSGGGGSEVQLVESGGGFVQAGGSLRLSCETSGRPLLGYTIAWFRQVPGKEREFVAYHRWSDGANLYADSVKGRFTISGHNAKNTVSLQMNSLKPEDTAVYYCAAARMTTSNDKEYLYWGQGTQVTVSS
The molecule B4 gave a pKi in the assay with human CXCR4 (human) [7] of less than 7. For the same molecule, the Rel. potency with human CXCR4 (human) [8] was less than 0.1 fold. The molecule also returned a Displacem. (%) with human CXCR4 (human) [11] of 43%.
